According to PMC4400868:

Assay: AUC

Leucine-rich amelogenin protein, phosphorylated at S16 (LRAP(+P))
% monomers (2.5 mM CaCl2, pH 7.4): 94% monomers
monomer % (0.78 mg/mL, 50 mM NaCl, pH 7.4): 93.6%
monomer % (0.78 mg/mL, 50 mM NaCl, pH 8.0): 92.3%
monomer % (0.92 mg/mL, 150 mM NaCl, pH 8.0): 92.6%
monomer % (0.92 mg/mL, 200 mM NaCl, pH 8.0): 97.9%
monomer % (1.0 mg/mL, 50 mM NaCl, pH 5.8): 84.4%
monomer % (1.0 mg/mL, 150 mM NaCl, pH 5.8): 90.9%
monomer % (1.0 mg/mL, 150 mM NaCl, pH 7.4): 93.9%
monomer % (1.0 mg/mL, 200 mM NaCl, pH 5.8): 94.5%
monomer % (1.0 mg/mL, 200 mM NaCl, pH 7.4): 97.7%
